According to patent publication US20120258108A1 (AbbVie / Abbott, published 2012):
Substitutions are numbered along the chain they refer to. Values belong to the binder of their own block, whether it stands above or below them.

Key:
Recombinant Human DLL4 = Recombinant Human DLL4 (human, UniProt Q9NR61 27-524); test: SPR (BIACORE)
Experimental: (§1) The BIACORE assay (Biacore, Inc, Piscataway, N.J.) determines the affinity of antibodies or DVD-Ig with kinetic measurements of on-rate and off-rate constants. Binding of antibodies or DVD-Ig to a target antigen (for example, a purified recombinant target antigen) was determined by surface plasmon resonance-based measurements with a Biacore® 1000 or 3000 instrument (Biacore® AB, Uppsala, Sweden) using running HBS-EP (10 mM HEPES [pH 7.4], 150 mM NaCl, 3 mM EDTA, and 0.005% surfactant P20) at 25° C. All chemicals were obtained from Biacore® AB (Uppsala, Sweden) or otherwise from a different source as described in the text. For example, approximately 5000 RU of goat anti-mouse IgG, (Fcγ), fragment specific polyclonal antibody (Pierce Biotechnology Inc, Rockford, Ill.) diluted in 10 mM sodium acetate (pH 4.5) is directly immobilized across a CM5 research grade biosensor chip using a standard amine coupling kit according to manufacturer's instructions and procedures at 25 μg/ml. Unreacted moieties on the biosensor surface are blocked with ethanolamine. Modified carboxymethyl dextran surface in flowcell 2 and 4 is used as a reaction surface. Unmodified carboxymethyl dextran without goat anti-mouse IgG in flow cell 1 and 3 is used as the reference surface. For kinetic analysis, rate equations derived from the 1:1 Langmuir binding model are fitted simultaneously to association and dissociation phases of all eight injections (using global fit analysis) with the use of Biaevaluation 4.0.1 software. Purified antibodies or DVD-Ig are diluted in HEPES-buffered saline for capture across goat anti-mouse IgG specific reaction surfaces. Antibodies or DVD-Ig to be captured as a ligand (25 μg/ml) are injected over reaction matrices at a flow rate of 5 μl/min. The association and dissociation rate constants, kₒₙ (M⁻¹ s⁻¹) and koff (s⁻¹) are determined under a continuous flow rate of 25 μl/min. Rate constants are derived by making kinetic binding measurements at different antigen concentrations ranging from 10-200 nM. The equilibrium dissociation constant (M) of the reaction between antibodies or DVD-Igs and the target antigen is then calculated from the kinetic rate constants by the following formula: KD=koff/kₒₙ. Binding is recorded as a function of time and kinetic rate constants are calculated.

[1] = target: Recombinant Human VEGF 165 (human, UniProt P15692-4 27-191); test: SPR (BIACORE)
Experimental: as §1

[2] = target: T1, Recombinant Human TNFα/TNFSF1A (human, UniProt P01375 77-233); test: cell-based or functional assay
[3] = target: T1, Recombinant Human TNFα/TNFSF1A; test: SPR (BIACORE)
Experimental: as §1

Recombinant Human DLL4, sequence (Q9NR61 27-524 limits assumed): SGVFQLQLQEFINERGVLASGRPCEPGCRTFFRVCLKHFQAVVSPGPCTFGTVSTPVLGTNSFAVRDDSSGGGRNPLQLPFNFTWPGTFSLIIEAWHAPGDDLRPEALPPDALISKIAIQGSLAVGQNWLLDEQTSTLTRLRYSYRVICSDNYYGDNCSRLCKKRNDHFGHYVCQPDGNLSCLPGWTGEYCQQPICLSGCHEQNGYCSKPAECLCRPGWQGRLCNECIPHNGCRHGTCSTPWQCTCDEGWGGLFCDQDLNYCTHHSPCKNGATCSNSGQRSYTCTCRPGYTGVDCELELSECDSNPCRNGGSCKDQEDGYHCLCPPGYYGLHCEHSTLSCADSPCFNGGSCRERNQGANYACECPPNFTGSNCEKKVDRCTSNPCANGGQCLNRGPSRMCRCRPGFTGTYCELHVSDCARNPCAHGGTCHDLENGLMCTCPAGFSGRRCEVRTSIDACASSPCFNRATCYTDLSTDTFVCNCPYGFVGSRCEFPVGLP
T1 sequence (P01375 77-233 limits assumed): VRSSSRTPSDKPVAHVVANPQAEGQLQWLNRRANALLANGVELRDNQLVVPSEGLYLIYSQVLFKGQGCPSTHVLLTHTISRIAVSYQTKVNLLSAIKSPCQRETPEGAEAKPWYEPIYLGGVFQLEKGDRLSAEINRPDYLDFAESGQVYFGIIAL
Recombinant Human VEGF 165, sequence (P15692 other isoform, or with tags, fused parts or gaps limits assumed): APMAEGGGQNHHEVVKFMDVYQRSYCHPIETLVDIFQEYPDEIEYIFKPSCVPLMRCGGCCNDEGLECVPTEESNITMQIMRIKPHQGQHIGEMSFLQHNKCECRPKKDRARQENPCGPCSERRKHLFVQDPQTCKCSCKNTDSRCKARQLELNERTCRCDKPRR

Kd (Recombinant Human DLL4): 1.5 nM | koff (Recombinant Human DLL4): 0.00012 s⁻¹ | kon (Recombinant Human DLL4): 84000 M⁻¹ s⁻¹
B1: AB287 (antibody, human IgG1, kappa, V domains shown)
VH: EVTLRESGPALVKPTQTLTLTCTVSGGSISSSSYYWGWIRQPPGKGLEWIGDIYYTGSTYYNPSLKSRVTISVDTSKNQFVLTMTNMDPVDTATYYCARQALAMGGGSDKWGQGTTVTVSS
VL: DYVLTQSPDSLAVSLGERATINCSGQRLGDKYASWYQQKPGQSPKLVIYEDSKRPSGIPDRFSGSNSGDDATLTISSLQAEDVAVYYCQAWDRDTGVFGGGTKVEIKR
notes: CDR-grafted parent antibody

Kd (Recombinant Human DLL4): 1 nM | koff (Recombinant Human DLL4): 9.2e-05 s⁻¹ | kon (Recombinant Human DLL4): 89000 M⁻¹ s⁻¹
B2: AB316 (antibody, human IgG1, kappa, V domains shown)
VH: EVQLVESGGGLVQPANSLKLSCAVSGGSISSSSYYWGWIRQSPKKGLEWIGDIYYTGSTYYNPSLKSRVTISVDTAKNTFYLQMDSLRSEDTATYYCARQALAMGGGSDKWGQGVLVTVSS
VL: DYRLTQSPASLSASLGETVNIECSGQRLGDKYASWYQQKPGKSPQLVIYEDSKRPSGIPSRFSGSNSGDQASLKINSLQSEDVATYYCQAWDRDTGVFGGGTKLELKR
notes: CDR-grafted parent antibody

Kd (Recombinant Human DLL4): 1 nM | koff (Recombinant Human DLL4): 9.5e-05 s⁻¹ | kon (Recombinant Human DLL4): 93000 M⁻¹ s⁻¹
B3: AB307 (antibody, human IgG1, kappa, V domains shown)
VH: EVQLLESGGGLVQPGGSLRLSCAVSGGSISSSSYYWGWIRQAPGKGLEWIGDIYYTGSTYYNPSLKSRVTISVDTSKNTFYLQMNSLRAEDTAVYYCARQALAMGGGSDKWGQGTLVTVSS
VL: EYVLTQSPGTLSLSPGERATLSCSGQRLGDKYASWYQQKPGQSPRLVIYEDSKRPSGIPDRFSGSNSGDDATLTISRLEPEDFAVFYCQAWDRDTGVFGQGTKVEIKR
notes: CDR-grafted parent antibody

Kd (Recombinant Human DLL4): 2.2 nM | koff (Recombinant Human DLL4): 0.00015 s⁻¹ | kon (Recombinant Human DLL4): 68000 M⁻¹ s⁻¹
B4: AB306 (antibody, human IgG1, kappa, V domains shown)
VH: B3 VH with L5V, G16R, S76A, T79S
VL: DYQLTQSPSSLSASVGDRVTITCSGQRLGDKYASWYQQKPGKSPKLVIYEDSKRPSGIPSRFSGSNSGDDATLTISSLQPEDVATYYCQAWDRDTGVFGQGTKVEIKR
notes: CDR-grafted parent antibody

Kd (Recombinant Human DLL4): 14 nM | koff (Recombinant Human DLL4): 0.0055 s⁻¹ | kon (Recombinant Human DLL4): 390000 M⁻¹ s⁻¹
B5: AB334 (antibody, human IgG1, kappa, V domains shown)
VH: QVQLQQSGAELMKPGASVKLSCKATGFTFSNFPMAWVKQRPGHGLEWVATISSSDGTTYYRDSVKGKFTITRDNSSNTLYIQLISLTTEDSAIYYCARGYYNSPFAYWGQGTLLTVSA
VL: DILMTQSPAILSVSPGERVSFSCRASEDIYSNLAWYQQRTNGAPRLLIYDTNNLADGVPSRFSGGGSGTDFTLSINSVESEDIADYYCQQYNNYPPTFGAGTKLELKR
notes: CDR-grafted parent antibody

Kd (Recombinant Human DLL4): 22 nM | koff (Recombinant Human DLL4): 0.0028 s⁻¹ | kon (Recombinant Human DLL4): 120000 M⁻¹ s⁻¹ | Kd [1]: 0.5 nM | koff [1]: 4.5e-05 s⁻¹ | kon [1]: 89000 M⁻¹ s⁻¹
B6: DVD1731 (bispecific antibody, human IgG1, kappa)
heavy: not shown
light: DIQMTQSPSSLSASVGDRVTITCRASEDIYSNLAWYQQKPGKAPKLLIYDTNNLADGVPSRFSGSGSGTDFTLTISSLQPEDVATYYCQQYNNYPPTFGQGTKVEIKRTVAAPDIRMTQSPASLSASLGETVNIECSASQDISNYLNWYQQKPGKAPQVLIYFTSSLHSGVPSRFSGSGSGTQFSLKINSLQSEDVATYYCQQYSTVPWTFGGGTKLELKRTVAAPSVFIFPPSDEQLKSGTASVVCLLNNFYPREAKVQWKVDNALQSGNSQESVTEQDSKDSTYSLSSTLTLSKADYEKHKVYACEVTHQGLSSPVTKSFNRGEC
notes: DVD-Ig

Kd (Recombinant Human DLL4): 24 nM | koff (Recombinant Human DLL4): 0.0039 s⁻¹ | kon (Recombinant Human DLL4): 160000 M⁻¹ s⁻¹
B7: AB299 (antibody, human IgG1, kappa, V domains shown)
VH: EVQLVESGGGLVQPGGSLRLSCAASGFTFSNFPMAWVRQAPGKGLEWVATISSSDGTTYYRDSVKGRFTISRDNSKNTLYLQMNSLRAEDTAVYYCARGYYNSPFAYWGQGTLVTVSS
VL: DIQMTQSPSSLSASVGDRVTITCRASEDIYSNLAWYQQKPGKAPKLLIYDTNNLADGVPSRFSGSGSGTDFTLTISSLQPEDFATYYCQQYNNYPPTFGQGTKVEIKR
notes: CDR-grafted parent antibody

Kd (Recombinant Human DLL4): 20 nM | koff (Recombinant Human DLL4): 0.002 s⁻¹ | kon (Recombinant Human DLL4): 100000 M⁻¹ s⁻¹
B8: AB319 (antibody, human IgG1, kappa, V domains shown)
VH: B7 VH with G15A, G16N, R19K, A40S, G42K, S75A, N84D, A88S, V93T, T112V
VL: DIRMTQSPASLSASLGETVNIECRASEDIYSNLAWYQQKPGKAPQLLIYDTNNLADGVPSRFSGSGSGTQFSLKINSLQSEDVATYYCQQYNNYPPTFGGGTKLELKR
notes: CDR-grafted parent antibody

Kd (Recombinant Human DLL4): 22 nM | koff (Recombinant Human DLL4): 0.0028 s⁻¹ | kon (Recombinant Human DLL4): 130000 M⁻¹ s⁻¹
B9: AB309 (antibody, human IgG1, kappa, V domains shown)
VH: B7 VH with G16R, S75A, T78S
VL: B7 VL with F83V
notes: CDR-grafted parent antibody

TNFα Neutralization Assay EC50 nM (L929 cells) [2]: 0.104 nM | Kd [3]: 0.088 nM | koff [3]: 0.0001 s⁻¹ | kon [3]: 1.2e+06 M⁻¹ s⁻¹
B10: AB281 (antibody, human IgG1, kappa, V domains shown)
VH: EVTLRESGPALVKPTQTLTLTCTASGFTFDDYAMHWVRQPPGKGLEWVSAITWNSGHIDYADSVEGRFTISRDNSKNQLVLTMTNMDPVDTATYYCAKVSYLSTASSLDYWGQGTTVTVSS
VL: DIVMTQSPDSLAVSLGERATINCRASQGIRNYLAWYQQKPGQAPKLLIYAASTLQSGVPDRFSGSGSGTDFTLTISSLQAEDVAVYYCQRYNRAPYTFGGGTKVEIKR
notes: CDR-grafted parent antibody; also called TNF (AB057)

Kd (Recombinant Human DLL4): 20 nM | koff (Recombinant Human DLL4): 0.0039 s⁻¹ | kon (Recombinant Human DLL4): 200000 M⁻¹ s⁻¹
B11: AB290 (antibody, human IgG1, kappa, V domains shown)
VH: EVTLRESGPALVKPTQTLTLTCTASGFTFSNFPMAWVRQPPGKGLEWVATISSSDGTTYYRDSVKGRFTISRDNSKNQLVLTMTNMDPVDTATYYCARGYYNSPFAYWGQGTTVTVSS
VL: DIVMTQSPDSLAVSLGERATINCRASEDIYSNLAWYQQKPGQAPKLLIYDTNNLADGVPDRFSGSGSGTDFTLTISSLQAEDVAVYYCQQYNNYPPTFGGGTKVEIKR
notes: CDR-grafted parent antibody

Kd (Recombinant Human DLL4): 2.3 nM | koff (Recombinant Human DLL4): 0.00018 s⁻¹ | kon (Recombinant Human DLL4): 76000 M⁻¹ s⁻¹
B12: AB331 (antibody, human IgG1, kappa, V domains shown)
VH: QVQLQQSGAELMKPGASVKLSCKVTGGSISSSSYYWGWIKQRPGHGLEWIGDIYYTGSTYYNPSLKSKVTITVDTSSNTFYIQLISLTTEDSAIYYCARQALAMGGGSDKWGQGTLLTVSA
VL: DYLLTQSPAILSVSPGERVSFSCSGQRLGDKYASWYQQRTNGSPRLVIYEDSKRPSGIPSRFSGGNSGDDATLSINSVESEDIADYYCQAWDRDTGVFGAGTKLELKR
notes: CDR-grafted parent antibody

Kd [1]: < 0.001 nM | koff [1]: < 1e-06 s⁻¹ | kon [1]: 1e+06 M⁻¹ s⁻¹
B13: AB285 (antibody, human IgG1, kappa, V domains shown)
VH: EVTLRESGPALVKPTQTLTLTCTASGYTFTNYGMNWVRQPPGKGLEWVGWINTYTGEPTYAADFKRRFTFSLDTSKSQAVLTMTNMDPVDTATYYCAKYPHYYGSSHWYFDVWGQGTTVTVSS
VL: DIVMTQSPDSLAVSLGERATINCSASQDISNYLNWYQQKPGQAPKVLIYFTSSLHSGVPDRFSGSGSGTDFTLTISSLQAEDVAVYYCQQYSTVPWTFGGGTKVEIKR
notes: CDR-grafted parent antibody; also called VEGF (AB057)

N-terminal VD TNFα Neutralization Assay EC50 nM (L929 cells) [2]: 0.026 nM
B14: DVD1720 (bispecific antibody)
heavy: not shown
light: EIVMTQSPGTLSLSPGERATLSCRASQGIRNYLAWYQQKPGQAPRLLIYAASTLQSGVPDRFSGSGSGTDFTLTISRLEPEDFAVFYCQRYNRAPYTFGQGTKVEIKRTVAAPDVQMTQSPSSLSASVGDRVTITCTSSQNIVHSNGNTYLEWYQQKPGKSPKLLIYKVSNRFSGVPSRFSGSGSGTDFTLTISSLQPEDVATYYCFQVSHVPYTFGQGTKVEIKRTVAAPSVFIFPPSDEQLKSGTASVVCLLNNFYPREAKVQWKVDNALQSGNSQESVTEQDSKDSTYSLSSTLTLSKADYEKHKVYACEVTHQGLSSPVTKSFNRGEC

Kd (Recombinant Human DLL4): 21 nM | koff (Recombinant Human DLL4): 0.0055 s⁻¹ | kon (Recombinant Human DLL4): 260000 M⁻¹ s⁻¹
B15: AB289 (antibody, human IgG1, kappa, V domains shown)
VH: EVQLVQSGTEVKKPGESLKISCKASGFTFSNFPMAWVRQMPGKGLEWVATISSSDGTTYYRDSVKGQFTISRDNSFNTLFLQWSSLKASDTAMYYCARGYYNSPFAYWGQGTMVTVSS
VL: EIVMTQSPATLSVSPGERATLSCRASEDIYSNLAWYQQKPGQAPRLLIYDTNNLADDVPARFSGSGSGTEFTLTISSLQSEDFAVYYCQQYNNYPPTFGQGTRLEIKR
notes: CDR-grafted parent antibody

Kd (Recombinant Human DLL4): 31 nM | koff (Recombinant Human DLL4): 0.0029 s⁻¹ | kon (Recombinant Human DLL4): 92000 M⁻¹ s⁻¹ | Kd [1]: 0.1 nM | koff [1]: 7.7e-05 s⁻¹ | kon [1]: 760000 M⁻¹ s⁻¹
B16: DVD1713 (bispecific antibody, human IgG1, kappa)
heavy: not shown
light: DIVMTQSPDSLAVSLGERATINCRASEDIYSNLAWYQQKPGQAPKLLIYDTNNLADGVPDRFSGSGSGTDFTLTISSLQAEDVAVYYCQQYNNYPPTFGGGTKVEIKRTVAAPEIVMTQSPATLSVSPGERATLSCSASQDISNYLNWYQQKPGQAPRVLIYFTSSLHSDVPARFSGSGSGTEFTLTISSLQSEDFAVYYCQQYSTVPWTFGQGTRLEIKRTVAAPSVFIFPPSDEQLKSGTASVVCLLNNFYPREAKVQWKVDNALQSGNSQESVTEQDSKDSTYSLSSTLTLSKADYEKHKVYACEVTHQGLSSPVTKSFNRGEC
notes: DVD-Ig
